According to patent US20180094051A1, “METHOD FOR INHIBITING LYMPHANGIOGENESIS BY ADMINISTRATION OF AN INHIBITOR OF THE CXCL12 PATHWAY” (Tsinghua University, priority 2012, published 2018):
Entries after “also recorded” stand apart in the source; their conditions may differ.

Legend:
Format in all cases: cell-based
[1] = system: chemokine receptor CXCR4; assay: Flow cytometry of CXCR4 on the surface of lymphatic endothelial cells; settings: starved mouse lymphatic endothelial cells, 100 ng/mL VEGF-C, 24 hours
Procedure: Mouse primary lymphatic endothelial cells at passage 2 or 3 in good condition were selected and seeded into four 6 cm Petri dishes. Two groups of cells were cultured normally, while the other two groups of cells were treated by replacing the medium with a medium free of serum and growth factors when the cell density reached 80%, and starved overnight. One of the two groups was cultured for 24 hours after the medium was replaced with a serum-free culture medium containing 100 ng/mL of VEGF-C. The four groups of cells were detected for the expression level of chemokine receptor CXCR4 on the cell surface by flow cytometry. The group of cells cultured normally was used as negative control.
The cells were treated with 0.25% disodium EDTA (Ethylenediaminetetraacetic Acid Disodium Salt, EDTA), then washed with ice-cold PBS. The cells were suspended and centrifuged at a low speed (600 g, 3 minutes; the low-speed centrifugations in this experiment all referred to centrifugation at this speed for this time). The cells were resuspended in 1 mL of PBS containing 10% goat serum and then incubated for 15 minutes. […]
Each group of cells were resuspended in 1 mL of PBS containing 2% goat serum, and then 1 μg of fluorescein-labeled secondary antibody was added. […] The expression of CXCR4 on cell surface was analyzed by flow cytometry (FACS Calibur Flow Cytometry System, Becton Dickinson).

[2] = system: chemokine receptor CXCR4; assay: Immunoblotting of CXCR4 in lymphatic endothelial cells (incl. HIF-1α RNA interference); settings: mouse lymphatic endothelial cells, 100 ng/mL VEGF-C, 6, 12 and 24 hours
Procedure: Mouse primary lymphatic endothelial cells at passage 2 or 3 in good condition were selected, and starved overnight by replacing the culture medium with a fresh medium free of serum and growth factors. Then the medium was replaced with a medium containing 100 ng/mL of VEGF-C. The cells were incubated for 6, 12 and 24 hours, respectively, and then trypsinized and collected by centrifugation for detecting the expression level of chemokine receptor CXCR4 in the cells by immunoblotting.
The samples were subjected to SDS-PAGE (the concentration of separation gel was 15%). Protein bands were transferred to polyvinylidene difluoride (PVDF) membrane (purchased from Millipore) at 100 mA for 3 hours using an electroblotting device in ice bath. TBST buffer (20 mM Tris, pH7.4, 150 mM NaCl, 0.1% Tween-20) was formulated for preparing blocking solution, primary antibody solution and secondary antibody solution. The PVDF membrane was further incubated in blocking solution containing 5% skim milk for 1 hour at room temperature with gentle shaking. The membrane was then washed with TBST for 5 times, 5 minutes each. […]
The siRNA for interfering with the chemical synthesis of HIF-1α was purchased from Santa Cruz Biotechnology, and the negative control siRNA was purchased from GenePharma, Shanghai. […] HIF-1α knock-down efficiency was detected by immunoblotting. […]

[3] = system: HIF-1α; assay: Immunoblotting of HIF-1α in lymphatic endothelial cells; settings: mouse lymphatic endothelial cells, 100 ng/mL VEGF-C

B1: VEGF-C: Vascular Endothelial Growth Factor C, the major pro-lymphangiogenesis factor; purchased from R&D Systems (protein, UniProt P49767 112-227, looked up)
Vascular endothelial growth …: AHYNTEILKSIDNEWRKTQCMPREVCIDVGKEFGVATNTFFKPPCVSVYRCGGCCNSEGLQCMNTSTSYLSKTLFEITVPLSQGPKPVTISFANHTSCRCMSKLDVYRQVHSIIRR
In the case of B1, the “cell surface CXCR4 protein level” value [1] is reported as “could indeed upregulate the expression level of chemokine receptor CXCR4”, the “expression level of CXCR4” value [2] is reported as “could up-regulate the expression of CXCR4 and HIF-1α” and the “expression level of HIF-1α” value [3] is reported as “could indeed upregulate the expression level of HIF-1α; also recorded: could up-regulate the expression of CXCR4 and HIF-1α”.
